Patent US20040167074A1, “Therapeutic applications of mFLINT polypeptides” (priority 1998, published 2004)

Key:
[1] = target: Fas; experiment: ELISA: 100 ng Fas adsorbed, FasL 10 ng, anti-Flag M2 detection
[2] = target: mrecFas; experiment: ELISA: 100 ng mrecFas adsorbed, FasL 5 ng, anti-Flag M2 detection
[3] = target: Fas; experiment: ELISA: 100 ng Fas adsorbed, FasL 0.5 ng, anti-Flag M2 detection
[4] = target: T1, mFLINT (mature human FLINT, non-Flagged, made according to Examples 8 and 9) (human) (UniProt O95407); experiment: ELISA: 100 ng FLINT adsorbed, FasL 0.1 ng, anti-Flag M2 detection
T1 sequence (chain, glycosylated (p-0200)): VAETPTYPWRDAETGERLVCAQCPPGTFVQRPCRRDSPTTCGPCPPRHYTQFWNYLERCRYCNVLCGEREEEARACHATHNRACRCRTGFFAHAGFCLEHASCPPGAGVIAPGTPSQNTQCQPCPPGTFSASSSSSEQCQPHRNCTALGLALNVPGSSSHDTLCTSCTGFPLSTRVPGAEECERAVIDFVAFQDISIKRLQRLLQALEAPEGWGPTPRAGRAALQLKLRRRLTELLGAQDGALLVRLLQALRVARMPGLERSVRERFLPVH

[5] = target: Fas; experiment: ELISA: 100 ng Fas adsorbed, FasL 1.0 ng, anti-Flag M2 detection
[6] = target: T1, mFLINT (mature human FLINT, non-Flagged, made according to Examples 8 and 9) (human); experiment: ELISA: 100 ng FLINT adsorbed, FasL 10 ng, anti-Flag M2 detection
[7] = target: mrecFas; experiment: ELISA: 100 ng mrecFas adsorbed, FasL 10 ng, anti-Flag M2 detection
[8] = target: T1, mFLINT (mature human FLINT, non-Flagged, made according to Examples 8 and 9) (human); experiment: ELISA: 100 ng FLINT adsorbed, FasL 1.0 ng, anti-Flag M2 detection
[9] = target: T1, mFLINT (mature human FLINT, non-Flagged, made according to Examples 8 and 9) (human); experiment: ELISA: 100 ng FLINT adsorbed, FasL 0.5 ng, anti-Flag M2 detection
[10] = target: Fas; experiment: ELISA: 100 ng Fas adsorbed, FasL 100 ng, anti-Flag M2 detection
[11] = target: T1, mFLINT (mature human FLINT, non-Flagged, made according to Examples 8 and 9) (human); experiment: ELISA: 100 ng FLINT adsorbed, FasL 50 ng, anti-Flag M2 detection
[12] = target: mrecFas; experiment: ELISA: 100 ng mrecFas adsorbed, FasL 500 ng, anti-Flag M2 detection
[13] = target: Fas; experiment: ELISA: 100 ng Fas adsorbed, FasL 0.1 ng, anti-Flag M2 detection
[14] = target: mrecFas; experiment: ELISA: 100 ng mrecFas adsorbed, FasL 50 ng, anti-Flag M2 detection
[15] = target: Fas; experiment: ELISA: 100 ng Fas adsorbed, FasL 50 ng, anti-Flag M2 detection
[16] = target: Fas; experiment: ELISA: 100 ng Fas adsorbed, FasL 5.0 ng, anti-Flag M2 detection
[17] = target: mrecFas; experiment: ELISA: 100 ng mrecFas adsorbed, FasL 100 ng, anti-Flag M2 detection
[18] = target: T1, mFLINT (mature human FLINT, non-Flagged, made according to Examples 8 and 9) (human); experiment: ELISA: 100 ng FLINT adsorbed, FasL 100 ng, anti-Flag M2 detection
[19] = target: mrecFas; experiment: ELISA: 100 ng mrecFas adsorbed, FasL 1 ng, anti-Flag M2 detection
[20] = target: T1, mFLINT (mature human FLINT, non-Flagged, made according to Examples 8 and 9) (human); experiment: ELISA: 100 ng FLINT adsorbed, FasL 5.0 ng, anti-Flag M2 detection

Sequence of hFasLigand (Flag-tagged) (P48023 103-281 limits assumed): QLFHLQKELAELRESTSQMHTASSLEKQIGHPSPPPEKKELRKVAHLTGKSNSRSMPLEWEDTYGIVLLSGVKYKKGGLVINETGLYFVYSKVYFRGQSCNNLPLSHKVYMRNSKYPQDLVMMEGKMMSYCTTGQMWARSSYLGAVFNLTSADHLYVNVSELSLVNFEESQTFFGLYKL
Sequence of Fas (P25445 whole entry): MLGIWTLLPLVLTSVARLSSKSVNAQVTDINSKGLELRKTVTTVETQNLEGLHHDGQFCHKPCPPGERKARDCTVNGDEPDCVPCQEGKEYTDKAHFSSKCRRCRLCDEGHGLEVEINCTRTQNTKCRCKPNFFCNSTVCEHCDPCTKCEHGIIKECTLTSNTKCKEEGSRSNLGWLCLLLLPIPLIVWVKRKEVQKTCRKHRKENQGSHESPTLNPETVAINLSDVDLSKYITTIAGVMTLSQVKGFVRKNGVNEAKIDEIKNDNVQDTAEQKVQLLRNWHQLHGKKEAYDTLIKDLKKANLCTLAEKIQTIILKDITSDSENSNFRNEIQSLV

- Fas OD, 405 nM [1]: 0.03 OD, 405 nM
- OD, 405 nM [2]: 0.2 OD, 405 nM
- Fas OD, 405 nM [3]: 0 OD, 405 nM
- FLINT OD [4]: 0 OD, 405 nM
- Fas OD, 405 nM [5]: 0 OD, 405 nM
- FLINT OD [6]: 0.12 OD, 405 nM
- OD, 405 nM [7]: 0.3 OD, 405 nM
- FLINT OD [8]: 0.02 OD, 405 nM
- FLINT OD [9]: 0 OD, 405 nM
- Fas OD, 405 nM [10]: 0.18 OD, 405 nM
- FLINT OD [11]: 0.28 OD, 405 nM
- OD, 405 nM [12]: 1.6 OD, 405 nM
- Fas OD, 405 nM [13]: 0 OD, 405 nM
- OD, 405 nM [14]: 0.7 OD, 405 nM
- Fas OD, 405 nM [15]: 0.045 OD, 405 nM
- Fas OD, 405 nM [16]: 0.01 OD, 405 nM
- OD, 405 nM [17]: 1.2 OD, 405 nM
- FLINT OD [18]: 0.78 OD, 405 nM
- OD, 405 nM [19]: 0.1 OD, 405 nM
- FLINT OD [20]: 0.04 OD, 405 nM
Substance: hFasLigand (Flag-tagged) (from UniProt P48023)
